Assay: yeast display, Sf9 membrane polyspecificity reagent, FACS + sequencing; frameworks hold sequencing errors
Method in brief: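 A synthetic nanobody library was expressed on Saccharomyces cerevisiae BJ5465 by galactose induction for 36–48 hours. The library was stained for 1 hour at 4 °C with 10% biotinylated, detergent-solubilized Sf9 membrane reagent and enriched with streptavidin microbeads before FACS. Low and high (top ~1%) gates were set on anti-HA fluorescence for expression and streptavidin fluorescence for reagent binding, and each polyreactivity label reflects the gate of origin.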

Sequence | polyreactivity (PSR sort gate)
QVQLVESGGGLVQAGGSLLLSCPASGRIFTWYAMGWYRQAPGKERELVAAINYNGDDTYYADSVKGRFTISRDNAKNTVYLQMNSLKPEDTAVYYCAAEGSRPPYDYWGQGTQVTVSS | high polyreactivity
QVQLVESGGGLVQAGGSLLLSGAPSGRTFPYYAMGWYRQAPGKERELVARISSDGSTTYADSVKGRITISRDHAKNTVYLQMNSLKPEDTAVYYSAADVTFAGLKYIFDYWGPGTQVTVSS | low polyreactivity
QVQLVESGGGLVQAGGSLLVSCAASGRIFSYNAMGWYRQAPGKERELVAAITRSGSTNYADSVKGRFTISRDNANNTVYLQMNSLKPEDTAVYYCAAVVYRPYRWQYDYWGQGTQVTVSS | high polyreactivity
QVQLVESGGGLVQAGGSLPLICADSGFISAYYAMGWYRQAPGKEREFVAGISKSGSSTSYADSVKGRFTISRDNAKKTVYLQMNSLKPEDTAVYYCAKYTPYYSELGYWGQGTQVTVSS | high polyreactivity
QVQLVESGGGLVQAGGSLPLRCAASGLILEYYAMGWYRQAPGKERELVAAITRGGSTYYADSVKWRFTISRDNAKNTVYLQMNSLKPEDTAVYYCAADRYYYEYDYWGQGTQVNVSS | low polyreactivity
QVQLVESGGGLVQAGGSLPLSCAASGLTIFVNAMGWYRQAPGKERELVATISGGGSTYYADSVKGRFTISRDNAKNTVYLQMNSLKREDTAVYYCNAADVGGPWWYPYTYNYWGQGTQVTVSS | low polyreactivity
QVQLVESGGGLVQAGGSLPLSCAASGRTFHYNAMGWYRQAPGKERDLFAAISRDGGSTDYADSVKGRFTISSDNAKNTVYLQMNSLKPEDTAVYYCAAPIGKQEFSRDYDYWGQGTQVTVSS | low polyreactivity
QVQLVESGGGLVQAGGSLPLSCAASGRTFYYYAMGWYRQAPGKERELVAAISWSGGRTYYADSVKGSFTISRDNAKNTVYLQMNSLKPADTAVYYCNAEPPRGYTVSSGGEMDYWGQCTQVTVSS | low polyreactivity
QVQLVESGGGLVQAGGSLPLSCAASGSIFDDYAMGWYRQAPGKEWELVAAITSGGSTYYADSVKGRFTISRDNAKYTVYLQMNSLKPEDTAVYYCAAPENKYDEYDYWGQGTQVTVSS | low polyreactivity
QVQLVESGGGLVQAGGSLPLSCAASGSIFLYNAMGWYRQAPGKERELVAGITFIGGSTYYADSVKGRFTISRDNAKNSVYLQMNSLKPEDTAVYYCNRLGVYWVGTEFDYWGQGTQVTLSS | low polyreactivity
QVQLVESGGGLVQAGGSLPLSCAASGSISGLNARGWSRQAPGTEREMVAAISRSGTRRYYADSVKGRFTISRDNEKNTVYLQMNSLKPEDSAVYYCAVQYAVAVGRYNYWGQGTQVTVSS | high polyreactivity
QVQLVESGGGLVQAGGSLPLSCAASGSTFNGYAMGWYIQAPGKEWELVAVISSGGTTNYADSVKGRFTISRDNAKNTVYLQMNSLKPEDTAVYYCAADIGHRYHYRFDYWGQGTQVTVSS | low polyreactivity
QVQLVESGGGLVQAGGSLPLSCAASGYTFDANAMGWYRQAPGKERELVASISSISDSTDYADSVKGRFTISRDNAKNTVYLQMNSLKPEDTAVYYCARSDVKPGRQERDYWGQGTQVTVSS | low polyreactivity
QVQLVESGGGLVQAGGSLPLSCYDSGITIPDYYMGCFRQSPGKERELVAAITYRSGSTYNADSVKGRFTISRDNAKNTVYLQMNSLKQEDTAVFYCAAKRFLLRYYTKQYNYWGLGTQVTVSS | high polyreactivity
QVQLVESGGGLVQAGGSLRCSCAASGRTFGTYAMGWYRQAPGKERELVAAISTRDGSTYYADSVKGRYTISRDTAKNTVYLQMNSLKPEDTAVYYCNAVVRYYDWGYWDYDYWGQGTQVTVSS | low polyreactivity
QVQLVESGGGLVQAGGSLRESCAASGSISAEYVMGWYRKAPGKERELVAAISVSAGTTYYADSVKGRFTISRDNAKTTVYLHMNSLKPEDTAVYYCAATDSYYWLYYYGYSPCNDYWGQGTQVTVSS | low polyreactivity
QVQLVESGGGLVQAGGSLRFSCAASGFIFSNYAMGWYRQAPGKERELVAAITSGGSTNYADSVKGRFTISRDNAKNTVYLQMNSLKPEDTAVYYCAAERGDTAYRKYDYWGQGTQVTVSS | low polyreactivity
QVQLVESGGGLVQAGGSLRFSCAASGFTFPYYAMGWYRQAPGKERELVAAITGRGGSSYYADSVKGRFTISRDNAKNTVYLQMNSLKPEDTAVYYCAARRSSRSKRLNYWGQGTQVTVSS | high polyreactivity
QVQLVESGGGLVQAGGSLRFSCAASGFTFSDYAMGWYRQAPGKEREFVAAITRRGGSTYYADSVKGRFTISRDNAKNTVYLQMNSLKPEDTAVYYCAKRGLRSYSFPLWQGYDYWGQGTQVTVSS | high polyreactivity
QVQLVESGGGLVQAGGSLRFSCAASGFTFVINDMGWYRQAPGKERELVADITSGGDTYYADSVKGRFTISRDNAKNTVYLQMNSLKPEDTAVYYCAADIYPDWIYLLYGYWGQGTQVTVSS | low polyreactivity
QVQLVESGGGLVQAGGSLRFSCAASGGIYYLYAMGWYRQAPGKEREFVAAISSSGGSTNYADSVMGRFTISRDNAKNTVYLQMNSLKRDDSAVYYCNAVDWKQEVGGWVEYDYWGQGTQVNVSS | high polyreactivity
QVQLVESGGGLVQAGGSLRFSCAASGHIFFYYTMGWYRQAPGKERELVAGITQSGGNTYYADSVKGRFTISRDNAKNTVYLQMNSLKPEDTAVYYCAARIRGTWKYGYWGQGTQVTVSS | low polyreactivity

Reference: the nanobody polyreactivity screen of Harvey et al. (2022)
